B1: CPEB3 Ribozyme (parent)
chain: GGGGGCCACAGCAGAAGCGUUCACGUCGCGGCCCCUGUCAGAUUCUGGUGAAUCUGCGAAUUCUGCUGU

Variants of: B1
Experiment: self-cleavage, relative activity (ratio to wild type); higher = more cleavage; co-transcriptional

Variant | self-cleavage
GGUGGCCACAGCAGAAUCGUUCACGUCGCGGCCCCUGUCAGAUUCUGGUGAAUCUGCGAAUUCUGCUGU [G3U G17U] | 0.0304
GGUGGCCACAGCAGAACCGUUCACGUCGCGGCCCCUGUCAGAUUCUGGUGAAUCUGCGAAUUCUGCUGU [G3U G17C] | 0.0675
GGUGGCCACAGCAGAAGCGUUCACGUCGCGUCCCCUGUCAGAUUCUGGUGAAUCUGCGAAUUCUGCUGU [G3U G31U] | 0.0468
GGUGGCCACAGCAGAAGCGUUCACGUCGCGACCCCUGUCAGAUUCUGGUGAAUCUGCGAAUUCUGCUGU [G3U G31A] | 0.074
GGUGGCCACAGCAGAAGCGUUCACGUCGCGGCCCCUGUCUGAUUCUGGUGAAUCUGCGAAUUCUGCUGU [G3U A40U] | 0.0917
GGUGGCCACAGCAGAAGCGUUCACGUCGCGGCCCCUGUCGGAUUCUGGUGAAUCUGCGAAUUCUGCUGU [G3U A40G] | 0.0981
GGUGGCCACAGCAGAAGCGUUCACGUCGCGGCCCGUGUCAGAUUCUGGUGAAUCUGCGAAUUCUGCUGU [G3U C35G] | 0.0418
GGUGGCCACAGCAGAAGCGUUCACGUCGCGGCCCAUGUCAGAUUCUGGUGAAUCUGCGAAUUCUGCUGU [G3U C35A] | 0.0237
GGUGGCCACAGCAGAAGCGUUCACGUCGCGGCCCCUGUCAGAUUUUGGUGAAUCUGCGAAUUCUGCUGU [G3U C45U] | 0.162
GGUGGCCACAGCAGGAGCGUUCACGUCGCGGCCCCUGUCAGAUUCUGGUGAAUCUGCGAAUUCUGCUGU [G3U A15G] | 0.141
GGUGGCCACAGCAGCAGCGUUCACGUCGCGGCCCCUGUCAGAUUCUGGUGAAUCUGCGAAUUCUGCUGU [G3U A15C] | 0.0817
GGUGGCCACAGCAGUAGCGUUCACGUCGCGGCCCCUGUCAGAUUCUGGUGAAUCUGCGAAUUCUGCUGU [G3U A15U] | 0.0782
GGUGGCCAGAGCAGAAGCGUUCACGUCGCGGCCCCUGUCAGAUUCUGGUGAAUCUGCGAAUUCUGCUGU [G3U C9G] | 0.446
GGUGGCCACAGCAGAAGCGUUCACGUCGUGGCCCCUGUCAGAUUCUGGUGAAUCUGCGAAUUCUGCUGU [G3U C29U] | 0.0459
GGUGGCCACAGCAGAAGCGUUCACGUCGCGGCCCCUGUCAGAUUCUGGUGAAUCUGCGAAUUUUGCUGU [G3U C63U] | 0.114
GGUGGCCACAGCAGAAGCGUUCACGUCGCGGCUCCUGUCAGAUUCUGGUGAAUCUGCGAAUUCUGCUGU [G3U C33U] | 0.0906
GGUGGCCACAGCAGAAGCGUUCACGUCGCGGCACCUGUCAGAUUCUGGUGAAUCUGCGAAUUCUGCUGU [G3U C33A] | 0.102
GGUGGCCACAGCAGAAGCGUUCAGGUCGCGGCCCCUGUCAGAUUCUGGUGAAUCUGCGAAUUCUGCUGU [G3U C24G] | 0.0481
GGUGGCCACAGCAGAAGCGUUCAUGUCGCGGCCCCUGUCAGAUUCUGGUGAAUCUGCGAAUUCUGCUGU [G3U C24U] | 0.0674
GGUGGCCACAGCAGAAGCGUUCAAGUCGCGGCCCCUGUCAGAUUCUGGUGAAUCUGCGAAUUCUGCUGU [G3U C24A] | 0.0286

Variant | self-cleavage
GGUGGCCACAGCAGAAGCGUUCACGUCGCCGCCCCUGUCAGAUUCUGGUGAAUCUGCGAAUUCUGCUGU [G3U G30C] | 0.0267
GGUGGCCACAGCAGAAGCGUUCACGUCGCUGCCCCUGUCAGAUUCUGGUGAAUCUGCGAAUUCUGCUGU [G3U G30U] | 0.0357
GGUGGCCACAGCAGAAGCGUUCACGUCGCAGCCCCUGUCAGAUUCUGGUGAAUCUGCGAAUUCUGCUGU [G3U G30A] | 0.0662
GGUGGCCACAGCAGAAGCGUUCACGUCGCGGCCCCUGUCAGAUUCUGGUGAAUCUGCGAGUUCUGCUGU [G3U A60G] | 0.0646
GGUGGCCACAGCAGAAGCGUUCACGUCGCGGCCCCUGUCAGAUUCUGGUGAAUCUGCGACUUCUGCUGU [G3U A60C] | 0.0666
GGUGGCCACAGCAGAAGCGUUCACGUCGCGGCCCCUGUCAGAUUCUGGUGAAUCUGCGAUUUCUGCUGU [G3U A60U] | 0.0237
GGUGGCCACAGCAGAAGCGUUCACGUCCCGGCCCCUGUCAGAUUCUGGUGAAUCUGCGAAUUCUGCUGU [G3U G28C] | 0.0382
GGUGGCCACAGCAGAAGCGUUCACGUCUCGGCCCCUGUCAGAUUCUGGUGAAUCUGCGAAUUCUGCUGU [G3U G28U] | 0.0309
GGUGGCCACAGCCGAAGCGUUCACGUCGCGGCCCCUGUCAGAUUCUGGUGAAUCUGCGAAUUCUGCUGU [G3U A13C] | 0.0166
GGUGGCCACAGCGGAAGCGUUCACGUCGCGGCCCCUGUCAGAUUCUGGUGAAUCUGCGAAUUCUGCUGU [G3U A13G] | 0.181
GGUGGCCACAGCUGAAGCGUUCACGUCGCGGCCCCUGUCAGAUUCUGGUGAAUCUGCGAAUUCUGCUGU [G3U A13U] | 0.105
GGUGGCCACAGCAGAGGCGUUCACGUCGCGGCCCCUGUCAGAUUCUGGUGAAUCUGCGAAUUCUGCUGU [G3U A16G] | 0.0682
GGUGGCCACAGCAGAUGCGUUCACGUCGCGGCCCCUGUCAGAUUCUGGUGAAUCUGCGAAUUCUGCUGU [G3U A16U] | 0.0502
GGUGGCCACAGCAGACGCGUUCACGUCGCGGCCCCUGUCAGAUUCUGGUGAAUCUGCGAAUUCUGCUGU [G3U A16C] | 0.0591
GGUGGCCACAGCAGAAGCGUUCACGUCGCGGUCCCUGUCAGAUUCUGGUGAAUCUGCGAAUUCUGCUGU [G3U C32U] | 0.0936
GGUGGCCACAGCAGAAGCGUUCACGUCGCGGCCCCUGUCAGAUUCUGGUGAAUCUGUGAAUUCUGCUGU [G3U C57U] | 0.0383
GGUGGCCACAGCAGAAGCGUUCACGUCGCGGCCCCUGUCAGAUUCUGGUGAAUCUGAGAAUUCUGCUGU [G3U C57A] | 0.0577
GGUGGCCACAGCAGAAGCGUUCACGUGGCGGCCCCUGUCAGAUUCUGGUGAAUCUGCGAAUUCUGCUGU [G3U C27G] | 0.0583
GGUGGCCACAGCAGAAGCGUUCACGUUGCGGCCCCUGUCAGAUUCUGGUGAAUCUGCGAAUUCUGCUGU [G3U C27U] | 0.0361

From the RNAGym collection of RNA variant scans (doi:10.7554/elife.80360)
